From patent US20260166145A1 (Memorial Sloan Kettering, published 2026)

B1: Lintuzumab (HuM195) antibody (antibody, V domains shown)
VH: QVQLVQSGAEVKKPGSSVKVSCKASGYTFTDYNMHWVRQAPGQGLEWIGYIYPYNGGTGYNQKFKSKATITADESTNTAYMELSSLRSEDTAVYYCARGRPAMDYWGQGTLVTVSS
VL: DIQMTQSPSSLSASVGDRVTITCRASESVDNYGISFMNWFQQKPGGAPKLLIYAASNQGSGVPSRFSGSGSGTDFTLTISSLQPDDFATYYCQQSKEVPWTFGQGTKVEIK
notes: also called Hu195; Hu195 antibody
B2: HuM195 single-chain variable fragment (scFv), purified, with C-terminal His-tag (scFv)
scFv: QVQLVQSGAEVKKPGSSVKVSCKASGYTFTDYNMHWVRQAPGQGLEWIGYIYPYNGGTGYNQKFKSKATITADESTNTAYMELSSLRSEDTAVYYCARGRPAMDYWGQGTLVTVSSGGGGSGGGGSGGGGSDIQMTQSPSSLSASVGDRVTITCRASESVDNYGISFMNWFQQKPGGAPKLLIYAASNQGSGVPSRFSGSGSGTDFTLTISSLQPDDFATYYCQQSKEVPWTFGQGTKVEIKHHHHHHHH
notes: Expressed from the pSF-CMV-Puro-IL2 secretion plasmid in FreeStyle 293 cells and purified on a Histrap column; Monomeric by size exclusion chromatography; also called HuM195 scFv; Hu195 scFv

Experiments:
[1] = target: T1, Human CD33-FC protein (R&D Systems) (human, UniProt P20138 18-259); assay: competitive ELISA on coated CD33-FC: pre-incubation with increasing HuM195 antibody, then HuM195 scFv at 100 nM, detected with anti-human Fab-HRP; signal normalised to 0 nM HuM195 falls from about 95-100 to about 10 on the axis named Blocked (%)
T1 construct: Bought reagent; also called purified CD33-FC; not shown: Fc part of the bought fusion; it is captured by anti-hIgG Fc biosensors

[2] = target: T1, Human CD33-FC protein (R&D Systems); assay: BLI (Octet RED96e) on captured human CD33-FC; reference is HuM195 scFv
Excerpt: (§1) Equilibrium dissociation constant (Kd) measurement with bio-layer interferometry (BLI) biosensor. Human CD33-FC protein (R&D Systems, Minneapolis, MN) was captured on Anti-hIgG Fc Capture (AHC) Biosensors (ForteBio, Fremont, CA) overnight and blocked with FC. […] The binding graphs were fitted to a Kd constant model.

[3] = target: T1, Human CD33-FC protein (R&D Systems); assay: BLI (Octet RED96e): human CD33-FC captured on anti-hIgG Fc Capture biosensors, antibody in solution; full-length bivalent HuM195 IgG
Excerpt: as §1

[4] = target: T1, Human CD33-FC protein (R&D Systems); assay: BLI (Octet RED96e): human CD33-FC captured on anti-hIgG Fc Capture biosensors, scFv in solution; monovalent scFv, not IgG
Excerpt: as §1

T1 sequence (P20138 18-259 limits assumed): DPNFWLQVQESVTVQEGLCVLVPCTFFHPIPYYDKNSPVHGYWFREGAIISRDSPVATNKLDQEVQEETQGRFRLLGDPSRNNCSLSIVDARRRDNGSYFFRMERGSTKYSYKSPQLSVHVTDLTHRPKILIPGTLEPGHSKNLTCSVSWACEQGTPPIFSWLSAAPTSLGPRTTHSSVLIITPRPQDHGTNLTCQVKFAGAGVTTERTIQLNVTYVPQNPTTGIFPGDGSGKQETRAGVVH

Row | Binder | IC50 [1] | fold difference of Kd against HuM195 scFv [2] | Kd [3] | Kd [4]
1 | B1 | 0.716 nM | ~30 fold | 0.0627 nM | –
2 | B2 | – | – | – | 1.81 nM
